How the values were obtained:
Assay in all cases: flow cytometry, protein L-biotin then streptavidin-PE on LV-transduced human primary T cells
[1] = target: CAR19 construct 1713 (LTG1713): SP-CD19binder-Truncated TNFRSF19link-TNFRSF19tm-signaling
Target sequence (chain, as listed by the source): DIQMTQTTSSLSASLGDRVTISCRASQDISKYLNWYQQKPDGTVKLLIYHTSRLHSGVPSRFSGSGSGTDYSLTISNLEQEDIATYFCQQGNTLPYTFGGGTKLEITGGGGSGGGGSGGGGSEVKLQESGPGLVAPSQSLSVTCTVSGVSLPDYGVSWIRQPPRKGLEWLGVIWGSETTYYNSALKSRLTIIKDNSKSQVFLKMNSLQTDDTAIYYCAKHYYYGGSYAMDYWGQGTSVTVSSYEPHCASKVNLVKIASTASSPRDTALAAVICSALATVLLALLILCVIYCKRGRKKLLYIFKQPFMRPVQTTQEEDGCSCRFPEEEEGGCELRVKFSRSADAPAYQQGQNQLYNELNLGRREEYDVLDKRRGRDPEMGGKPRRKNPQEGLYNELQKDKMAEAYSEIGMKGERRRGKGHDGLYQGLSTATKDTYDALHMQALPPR

[2] = target: CAR19 construct 1712 (LTG1712): SP-CD19binder-TNFRSF16link-TNFRSF16tm-signaling
Target sequence (chain, as listed by the source): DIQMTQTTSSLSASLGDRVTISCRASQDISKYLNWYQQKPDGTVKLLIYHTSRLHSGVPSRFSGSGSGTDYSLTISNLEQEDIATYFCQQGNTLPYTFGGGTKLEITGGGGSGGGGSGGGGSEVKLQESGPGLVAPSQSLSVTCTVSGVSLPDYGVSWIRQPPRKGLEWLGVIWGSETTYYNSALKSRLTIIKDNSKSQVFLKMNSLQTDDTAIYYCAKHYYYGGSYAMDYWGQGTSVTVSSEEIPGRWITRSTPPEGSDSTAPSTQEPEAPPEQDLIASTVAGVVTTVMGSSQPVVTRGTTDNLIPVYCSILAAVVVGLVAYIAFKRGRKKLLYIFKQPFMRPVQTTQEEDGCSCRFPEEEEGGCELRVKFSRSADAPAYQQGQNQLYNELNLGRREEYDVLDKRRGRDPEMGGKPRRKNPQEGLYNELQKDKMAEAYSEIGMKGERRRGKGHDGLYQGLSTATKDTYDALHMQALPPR

[3] = target: CAR19 construct 1494 (LTG1494): SP-CD19binder-CD8link-CD8tm-signaling
Target sequence (chain, as listed by the source): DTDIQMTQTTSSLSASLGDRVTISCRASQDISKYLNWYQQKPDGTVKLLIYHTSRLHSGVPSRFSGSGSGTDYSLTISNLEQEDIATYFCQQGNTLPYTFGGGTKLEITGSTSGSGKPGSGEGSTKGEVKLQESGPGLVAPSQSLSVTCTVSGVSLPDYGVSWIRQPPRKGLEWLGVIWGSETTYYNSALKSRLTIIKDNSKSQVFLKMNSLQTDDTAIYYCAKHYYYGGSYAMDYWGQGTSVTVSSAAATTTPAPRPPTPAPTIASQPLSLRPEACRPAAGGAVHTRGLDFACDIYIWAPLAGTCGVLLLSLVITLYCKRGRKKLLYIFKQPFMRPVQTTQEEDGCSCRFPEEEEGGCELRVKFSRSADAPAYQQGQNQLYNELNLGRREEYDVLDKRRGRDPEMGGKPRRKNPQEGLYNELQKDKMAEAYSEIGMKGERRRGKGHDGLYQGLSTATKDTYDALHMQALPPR

## protein L-biotin conjugate
[1]
  percentage CAR on T cell surface (cells stained): 0.3%
[2]
  percentage CAR on T cell surface (cells stained): 86.4%
[3]
  percentage CAR on T cell surface (cells stained): 90.4%

From patent US20180305452A1
